Test results taken from the supplement of paper PMC10065799, “High-throughput profiling of sequence recognition by tyrosine kinases and SH2 domains using bacterial peptide display” (eLife, 2023).

Legend:
[1] = molecular target: c-Src SH2; assay: SH2 binding enrichment of the phosphorylated peptide, bacterial display (enrichment ratio); higher = better substrate or ligand; peptides without Tyr show the background
[2] = molecular target: Grb2 SH2 (UniProt P62993); assay: as above
[3] = molecular target: SHP2-C SH2; assay: as above
[4] = molecular target: FGFR1 (UniProt P11362); assay: phosphorylation enrichment, bacterial display (enrichment ratio); higher = better substrate or ligand; peptides without Tyr show the background
Chain of FGFR1 (P11362 whole entry, looked up): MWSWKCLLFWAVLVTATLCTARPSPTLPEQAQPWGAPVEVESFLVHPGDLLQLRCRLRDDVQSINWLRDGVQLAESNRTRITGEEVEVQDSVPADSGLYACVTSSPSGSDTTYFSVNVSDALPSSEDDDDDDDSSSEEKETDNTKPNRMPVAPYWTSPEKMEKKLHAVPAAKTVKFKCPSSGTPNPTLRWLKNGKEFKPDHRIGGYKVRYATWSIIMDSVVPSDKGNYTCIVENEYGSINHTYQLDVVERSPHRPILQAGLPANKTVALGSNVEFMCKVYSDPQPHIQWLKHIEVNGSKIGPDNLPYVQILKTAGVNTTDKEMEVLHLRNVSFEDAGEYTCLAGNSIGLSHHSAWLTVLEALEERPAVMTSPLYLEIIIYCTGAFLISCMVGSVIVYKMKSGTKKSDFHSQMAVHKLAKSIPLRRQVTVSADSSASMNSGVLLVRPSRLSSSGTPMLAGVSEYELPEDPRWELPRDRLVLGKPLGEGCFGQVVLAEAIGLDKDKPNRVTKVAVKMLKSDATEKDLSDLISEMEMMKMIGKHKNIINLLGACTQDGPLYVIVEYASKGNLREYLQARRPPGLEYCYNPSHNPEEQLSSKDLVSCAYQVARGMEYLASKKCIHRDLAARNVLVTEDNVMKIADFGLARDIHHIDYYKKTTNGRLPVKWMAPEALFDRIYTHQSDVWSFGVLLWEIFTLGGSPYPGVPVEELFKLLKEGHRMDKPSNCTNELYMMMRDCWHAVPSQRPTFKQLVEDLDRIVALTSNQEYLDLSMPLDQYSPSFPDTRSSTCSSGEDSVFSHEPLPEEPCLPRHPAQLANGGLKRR

[5] = molecular target: Fes (UniProt P07332); assay: as above
Chain of Fes (P07332 whole entry, looked up): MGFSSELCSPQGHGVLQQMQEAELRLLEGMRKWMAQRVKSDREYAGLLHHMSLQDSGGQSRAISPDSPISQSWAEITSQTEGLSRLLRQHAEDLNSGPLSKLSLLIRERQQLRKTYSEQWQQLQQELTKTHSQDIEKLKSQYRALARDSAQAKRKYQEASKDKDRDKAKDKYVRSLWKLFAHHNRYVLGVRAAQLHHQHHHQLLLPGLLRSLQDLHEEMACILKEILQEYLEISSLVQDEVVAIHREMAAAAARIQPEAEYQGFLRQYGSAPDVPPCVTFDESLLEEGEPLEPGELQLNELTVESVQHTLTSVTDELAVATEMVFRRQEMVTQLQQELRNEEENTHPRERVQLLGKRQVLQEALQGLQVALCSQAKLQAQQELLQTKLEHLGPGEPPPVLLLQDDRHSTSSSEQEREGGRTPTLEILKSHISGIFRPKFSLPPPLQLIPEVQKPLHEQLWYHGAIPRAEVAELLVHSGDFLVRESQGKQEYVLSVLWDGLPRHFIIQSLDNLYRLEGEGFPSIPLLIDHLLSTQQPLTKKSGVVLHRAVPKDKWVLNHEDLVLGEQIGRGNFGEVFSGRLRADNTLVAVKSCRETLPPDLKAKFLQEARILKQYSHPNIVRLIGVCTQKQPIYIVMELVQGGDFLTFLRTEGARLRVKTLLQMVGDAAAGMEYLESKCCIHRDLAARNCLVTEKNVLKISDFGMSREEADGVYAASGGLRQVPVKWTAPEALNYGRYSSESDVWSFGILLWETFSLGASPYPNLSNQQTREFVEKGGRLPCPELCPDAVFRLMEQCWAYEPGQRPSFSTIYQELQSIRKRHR

[6] = molecular target: Jak2 (UniProt O60674); assay: as above
[7] = molecular target: FGFR3 (UniProt P22607); assay: as above
Chain of FGFR3 (P22607 whole entry, looked up): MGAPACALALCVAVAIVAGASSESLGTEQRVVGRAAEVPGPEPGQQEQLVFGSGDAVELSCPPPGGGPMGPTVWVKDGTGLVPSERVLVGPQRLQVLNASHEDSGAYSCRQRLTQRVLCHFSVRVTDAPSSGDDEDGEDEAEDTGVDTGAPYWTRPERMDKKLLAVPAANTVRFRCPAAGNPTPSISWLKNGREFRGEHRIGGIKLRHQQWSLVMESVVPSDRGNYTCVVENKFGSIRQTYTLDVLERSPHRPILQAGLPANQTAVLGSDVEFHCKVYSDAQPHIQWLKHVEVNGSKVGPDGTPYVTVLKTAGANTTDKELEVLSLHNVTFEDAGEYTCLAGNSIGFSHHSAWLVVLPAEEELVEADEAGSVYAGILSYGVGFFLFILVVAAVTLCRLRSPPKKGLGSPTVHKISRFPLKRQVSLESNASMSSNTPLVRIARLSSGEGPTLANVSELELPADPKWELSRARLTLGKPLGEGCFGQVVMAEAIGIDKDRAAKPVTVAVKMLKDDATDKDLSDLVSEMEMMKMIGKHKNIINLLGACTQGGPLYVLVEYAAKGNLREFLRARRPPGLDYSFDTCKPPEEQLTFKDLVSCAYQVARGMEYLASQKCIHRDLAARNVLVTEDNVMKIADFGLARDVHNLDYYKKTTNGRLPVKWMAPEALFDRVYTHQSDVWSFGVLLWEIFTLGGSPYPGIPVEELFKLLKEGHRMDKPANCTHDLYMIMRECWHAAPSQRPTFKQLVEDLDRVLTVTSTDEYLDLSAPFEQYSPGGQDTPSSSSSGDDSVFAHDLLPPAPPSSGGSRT

[8] = molecular target: Fyn (UniProt P06241); assay: as above
[9] = test system: AncSZ; assay: as above
[10] = molecular target: MERTK (UniProt Q12866); assay: as above
Chain of MERTK (Q12866 whole entry, looked up): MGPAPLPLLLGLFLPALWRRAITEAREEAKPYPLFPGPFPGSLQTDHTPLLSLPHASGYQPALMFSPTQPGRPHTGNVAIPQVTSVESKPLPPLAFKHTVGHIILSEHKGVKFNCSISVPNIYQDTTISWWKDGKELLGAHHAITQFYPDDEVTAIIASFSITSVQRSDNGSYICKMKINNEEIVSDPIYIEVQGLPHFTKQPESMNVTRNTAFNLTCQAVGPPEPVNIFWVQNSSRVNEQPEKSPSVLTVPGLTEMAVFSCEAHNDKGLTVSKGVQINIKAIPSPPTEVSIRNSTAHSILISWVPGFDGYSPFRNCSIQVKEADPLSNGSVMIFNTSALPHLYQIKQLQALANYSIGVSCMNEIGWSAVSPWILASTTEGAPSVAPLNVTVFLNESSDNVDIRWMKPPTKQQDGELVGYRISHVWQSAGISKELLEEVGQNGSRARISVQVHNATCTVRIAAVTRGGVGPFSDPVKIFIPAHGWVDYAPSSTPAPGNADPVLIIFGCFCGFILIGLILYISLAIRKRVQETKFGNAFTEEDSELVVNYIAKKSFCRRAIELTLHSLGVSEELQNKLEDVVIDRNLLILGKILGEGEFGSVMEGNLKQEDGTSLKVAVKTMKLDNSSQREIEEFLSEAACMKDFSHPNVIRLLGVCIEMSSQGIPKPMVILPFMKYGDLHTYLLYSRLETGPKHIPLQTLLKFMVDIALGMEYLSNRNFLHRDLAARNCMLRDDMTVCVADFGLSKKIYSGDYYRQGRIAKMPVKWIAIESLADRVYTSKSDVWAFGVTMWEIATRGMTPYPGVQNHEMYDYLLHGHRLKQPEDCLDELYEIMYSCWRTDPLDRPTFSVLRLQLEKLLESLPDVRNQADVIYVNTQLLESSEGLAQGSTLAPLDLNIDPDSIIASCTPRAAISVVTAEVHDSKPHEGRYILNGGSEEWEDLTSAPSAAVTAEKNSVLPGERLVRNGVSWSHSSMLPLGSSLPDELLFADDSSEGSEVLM

[11] = test system: c-Abl (mouse); assay: as above
[12] = molecular target: Hck (UniProt P08631); assay: as above
Chain of Hck (P08631 whole entry, looked up): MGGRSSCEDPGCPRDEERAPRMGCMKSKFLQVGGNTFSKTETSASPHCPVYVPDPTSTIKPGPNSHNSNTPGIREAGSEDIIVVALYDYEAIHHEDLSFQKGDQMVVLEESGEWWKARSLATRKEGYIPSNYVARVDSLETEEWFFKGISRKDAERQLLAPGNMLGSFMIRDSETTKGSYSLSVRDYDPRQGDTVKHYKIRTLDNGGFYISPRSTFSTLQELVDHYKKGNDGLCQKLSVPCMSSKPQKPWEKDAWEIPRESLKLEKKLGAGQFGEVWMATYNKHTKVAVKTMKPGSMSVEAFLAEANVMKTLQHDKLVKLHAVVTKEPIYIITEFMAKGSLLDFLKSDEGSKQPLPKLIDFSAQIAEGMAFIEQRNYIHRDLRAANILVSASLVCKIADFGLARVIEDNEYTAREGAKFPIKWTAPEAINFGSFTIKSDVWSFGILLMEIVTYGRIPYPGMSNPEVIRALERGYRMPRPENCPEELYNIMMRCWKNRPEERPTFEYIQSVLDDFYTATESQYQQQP

[13] = test system: Fer (mouse); assay: as above
[14] = test system: c-Src; assay: as above
[15] = molecular target: EPHB1 (UniProt P54762); assay: as above
Chain of EPHB1 (P54762 whole entry, looked up): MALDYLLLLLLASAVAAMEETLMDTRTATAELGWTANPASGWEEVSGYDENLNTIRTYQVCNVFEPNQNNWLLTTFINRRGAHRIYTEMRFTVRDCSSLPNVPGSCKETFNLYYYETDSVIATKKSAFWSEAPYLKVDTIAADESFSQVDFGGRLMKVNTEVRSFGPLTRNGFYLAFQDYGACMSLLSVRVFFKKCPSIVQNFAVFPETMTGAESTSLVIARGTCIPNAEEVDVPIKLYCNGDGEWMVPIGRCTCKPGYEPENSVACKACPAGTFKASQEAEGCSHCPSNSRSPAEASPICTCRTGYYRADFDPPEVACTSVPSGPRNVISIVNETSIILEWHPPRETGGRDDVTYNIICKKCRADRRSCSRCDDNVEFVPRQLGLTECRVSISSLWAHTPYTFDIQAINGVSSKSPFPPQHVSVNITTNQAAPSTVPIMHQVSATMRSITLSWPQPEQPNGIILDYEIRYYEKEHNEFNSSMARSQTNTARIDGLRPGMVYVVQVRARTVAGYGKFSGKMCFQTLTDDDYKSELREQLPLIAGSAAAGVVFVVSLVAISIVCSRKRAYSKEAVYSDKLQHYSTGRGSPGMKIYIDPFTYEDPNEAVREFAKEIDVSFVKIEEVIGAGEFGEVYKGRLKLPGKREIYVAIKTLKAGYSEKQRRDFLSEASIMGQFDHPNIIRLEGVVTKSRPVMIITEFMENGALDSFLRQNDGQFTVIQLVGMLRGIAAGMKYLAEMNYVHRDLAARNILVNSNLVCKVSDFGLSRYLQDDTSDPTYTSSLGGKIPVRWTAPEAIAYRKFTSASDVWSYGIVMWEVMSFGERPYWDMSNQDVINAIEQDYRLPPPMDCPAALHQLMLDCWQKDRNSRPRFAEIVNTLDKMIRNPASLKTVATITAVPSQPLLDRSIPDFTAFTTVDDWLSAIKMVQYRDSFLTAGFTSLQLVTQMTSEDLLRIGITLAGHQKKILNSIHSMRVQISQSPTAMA

[16] = molecular target: EPHB2 (UniProt P29323); assay: as above
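Wherever SH2 binding enrichment of the phosphorylated peptide, bacterial display is given: peptide library displayed on the E. coli surface as eCPX fusions, selected cells deep-sequenced, score is each peptide's frequency after selection divided by its frequency in the input.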
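Wherever phosphorylation enrichment, bacterial display is given: 11-residue human phosphosite peptides and single-mutation variants displayed on the E. coli surface, counted by deep sequencing, each peptide's frequency after selection divided by its frequency in the unselected input library; frequency after pTyr selection over input frequency; kinase dosed for 20-30% of maximal phosphorylation in three min.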

| SH2 binding enrichment [1] | SH2 binding enrichment [2] | SH2 binding enrichment [3] | Sequence | phosphorylation enrichment [4] | phosphorylation enrichment [5] | phosphorylation enrichment [6] | phosphorylation enrichment [7] | phosphorylation enrichment [8] | phosphorylation enrichment [9] | phosphorylation enrichment [10] | phosphorylation enrichment [11] | phosphorylation enrichment [12] | phosphorylation enrichment [13] | phosphorylation enrichment [14] | phosphorylation enrichment [15] | phosphorylation enrichment [16] |
| --- | --- | --- | --- | --- | --- | --- | --- | --- | --- | --- | --- | --- | --- | --- | --- | --- |
| 0.788 | 0.946 | 1.02 | LKRCQYVTKKV [ALDOA_Y204_E207K] | 0.807 | 0.821 | 0.752 | 0.548 | 0.806 | 1 | 0.535 | 0.605 | 0.371 | 0.582 | 0.545 | 0.432 | 0.506 |
| 0.471 | 0.756 | 0.912 | DRLAVYIDRVP [LMNA_Y45_R50P] | 0.451 | 1.09 | 0.911 | 0.731 | 0.429 | 1.09 | 0.331 | 0.654 | 0.468 | 0.437 | 0.329 | 0.682 | 0.719 |
| 0.491 | 0.732 | 0.521 | EEVGIYRVSGV [BCR_Y1089] | 0.457 | 0.919 | 0.794 | 0.647 | 4.31 | 1.04 | 0.575 | 14.1 | 3.09 | 0.504 | 4.45 | 0.488 | 0.434 |
| 5.9 | 0.798 | 1.2 | WYQTKYEELQI [KRT6B_Y360] | 0.503 | 1.23 | 1.15 | 0.727 | 0.474 | 1.11 | 0.437 | 0.741 | 0.649 | 0.614 | 0.552 | 0.454 | 0.639 |
| 0.683 | 0.975 | 0.408 | FGSGNYNDFGN [HNRNPA2B1_Y300_YF] | 0.378 | 0.995 | 0.726 | 0.505 | 0.347 | 0.941 | 0.363 | 0.876 | 0.4 | 0.362 | 0.419 | 1.97 | 0.544 |
| 0.494 | 0.935 | 0.651 | ILDEAYVMAGV [ERBB2_Y772] | 0.622 | 0.916 | 0.832 | 0.642 | 0.555 | 1.11 | 0.441 | 0.577 | 0.532 | 0.448 | 0.694 | 0.439 | 0.487 |
| 0.647 | 0.852 | 0.807 | VVCKNYAEAKD [ALB_Y343_D338V] | 0.482 | 1.1 | 0.875 | 0.693 | 0.512 | 0.932 | 0.457 | 0.785 | 0.519 | 0.5 | 0.477 | 0.515 | 0.581 |
| 0.638 | 0.997 | 0.938 | SASWTYVRWFD [PTDSS1_Y274_P269S] | 0.677 | 1.26 | 1.22 | 0.854 | 0.501 | 1.08 | 0.445 | 0.905 | 0.64 | 0.487 | 0.626 | 0.835 | 0.766 |
| 0.452 | 0.793 | 0.631 | CGTPDYIAREI [PRKCG_Y521_P524R] | 0.633 | 1.13 | 1.06 | 0.866 | 0.53 | 1.26 | 0.445 | 0.849 | 0.631 | 0.604 | 0.443 | 0.724 | 0.622 |
| 0.559 | 1.11 | 0.878 | AKVKPYVNGTS [IBTK_Y1064] | 0.421 | 0.559 | 0.58 | 0.47 | 0.486 | 0.606 | 0.357 | 0.778 | 0.402 | 0.461 | 0.412 | 0.41 | 0.419 |
| 0.829 | 1.29 | 0.616 | HNQDDYSYPSR [LDLR_Y845_G844D] | 0.82 | 0.856 | 0.751 | 0.79 | 0.664 | 5.73 | 0.653 | 0.776 | 0.651 | 0.567 | 0.597 | 1.2 | 2.52 |
| 0.447 | 0.734 | 0.702 | SVMAEYGLYRA [VSX2_Y219_G223R] | 0.537 | 0.862 | 0.569 | 0.578 | 7.16 | 0.951 | 0.552 | 0.945 | 6.46 | 0.512 | 6.41 | 0.701 | 1.28 |
| 0.732 | 1.21 | 0.381 | IRKDLYANNVM [ACTA1_Y296] | 0.447 | 0.863 | 0.772 | 0.588 | 0.488 | 0.559 | 0.413 | 0.576 | 0.572 | 0.436 | 0.419 | 0.605 | 0.527 |
| 0.425 | 0.825 | 0.644 | DRVALYVAREG [AACS_Y117_I118V] | 0.503 | 1.01 | 0.823 | 0.705 | 0.467 | 0.8 | 0.291 | 0.589 | 0.68 | 0.498 | 0.367 | 0.621 | 0.763 |
| 0.419 | 0.783 | 0.542 | KLNNEHLELNF [MME_Y497_Y497H_YF] | 0.462 | 0.921 | 0.813 | 0.662 | 0.453 | 0.88 | 0.405 | 0.805 | 0.464 | 0.423 | 0.454 | 0.514 | 0.466 |
| 1.19 | 1.3 | 1.37 | WKGSWYSMKKM [FGB_Y475_R478K] | 0.488 | 0.918 | 0.859 | 0.553 | 0.488 | 0.736 | 0.362 | 0.533 | 0.437 | 0.353 | 0.373 | 0.645 | 0.506 |
| 0.947 | 1.1 | 0.845 | NLDCFYQQVTK [SEC16A_Y1041_R1039C] | 0.934 | 1.31 | 1.15 | 0.786 | 0.675 | 1.54 | 0.856 | 0.831 | 1.91 | 2.22 | 1.31 | 1.1 | 1.08 |

| SH2 binding enrichment [1] | SH2 binding enrichment [2] | SH2 binding enrichment [3] | Sequence | phosphorylation enrichment [4] | phosphorylation enrichment [5] | phosphorylation enrichment [6] | phosphorylation enrichment [7] | phosphorylation enrichment [8] | phosphorylation enrichment [9] | phosphorylation enrichment [10] | phosphorylation enrichment [11] | phosphorylation enrichment [12] | phosphorylation enrichment [13] | phosphorylation enrichment [14] | phosphorylation enrichment [15] | phosphorylation enrichment [16] |
| --- | --- | --- | --- | --- | --- | --- | --- | --- | --- | --- | --- | --- | --- | --- | --- | --- |
| 4.92 | 1.43 | 2.75 | CTTIHYNYMCS [TP53_Y234_N239S] | 0.647 | 0.835 | 0.636 | 0.639 | 0.44 | 0.848 | 0.545 | 0.715 | 0.531 | 0.713 | 0.538 | 0.992 | 0.62 |
| 0.553 | 0.83 | 0.712 | RSSKMYLKTRS [LPL_Y329] | 0.8 | 1.24 | 0.827 | 0.885 | 0.631 | 1.07 | 1.53 | 0.585 | 0.758 | 0.541 | 0.452 | 0.484 | 0.792 |
| 0.478 | 0.808 | 0.785 | NEKNIYGVPLM [BMPR2_Y247_R248G] | 0.511 | 0.717 | 0.627 | 0.624 | 4.93 | 0.616 | 2.83 | 19.6 | 6.04 | 3.26 | 3.45 | 0.431 | 1.7 |
| 0.467 | 0.761 | 0.527 | IRTDAYVRAMT [RPE65_Y89] | 0.444 | 0.605 | 0.481 | 0.482 | 0.463 | 0.515 | 0.402 | 0.522 | 0.414 | 0.398 | 0.382 | 0.438 | 0.458 |
| 0.386 | 0.823 | 0.685 | FNNFGYGSDGF [HNRNPH3_Y161_N163S_YF] | 0.499 | 0.962 | 0.829 | 0.593 | 0.442 | 0.856 | 0.455 | 0.727 | 0.57 | 0.455 | 0.453 | 0.527 | 0.592 |
| 0.525 | 0.721 | 0.622 | SFIGQYSGKKE [L1CAM_Y1229] | 0.417 | 0.714 | 0.532 | 0.519 | 0.461 | 0.735 | 0.382 | 0.609 | 0.486 | 0.372 | 0.374 | 0.452 | 0.413 |
| 0.55 | 0.924 | 0.639 | NYGTNYRVGSS [CPO_Y278_K273N] | 0.357 | 0.503 | 0.441 | 0.389 | 0.463 | 0.458 | 0.368 | 0.372 | 0.465 | 0.719 | 0.425 | 0.493 | 0.681 |
| 1.52 | 0.86 | 0.814 | TEQDPYNNIVC [MMUT_Y364_R369C] | 0.659 | 1.22 | 0.952 | 0.666 | 0.555 | 1.14 | 0.528 | 0.784 | 0.566 | 0.627 | 0.642 | 0.555 | 0.572 |
| 0.394 | 0.757 | 0.629 | PLFGEYFTLQI [TP53_Y327_D324Y_YF] | 16.9 | 2.8 | 12.9 | 12.5 | 6.77 | 4.62 | 1.13 | 4.41 | 4.51 | 1.49 | 8.29 | 2.69 | 2.42 |
| 0.487 | 0.746 | 0.825 | VDDQIYYFRKP [PBRM1_Y1289_E1287Q] | 8.8 | 1.23 | 2.07 | 7.78 | 8.3 | 2.93 | 5.41 | 12.8 | 8.88 | 1.75 | 6.28 | 1.08 | 0.98 |
| 0.487 | 0.657 | 0.453 | SLTCTYSPALN [TP53_Y126_V122L] | 0.66 | 1.81 | 1.57 | 1.21 | 0.797 | 1.56 | 0.522 | 1.65 | 0.818 | 0.696 | 0.804 | 0.924 | 0.882 |
| 0.444 | 0.802 | 0.548 | KFDLMYAKRAF [TUBA1A_Y399] | 0.465 | 0.921 | 0.667 | 0.589 | 0.434 | 0.905 | 0.414 | 0.544 | 0.463 | 0.442 | 0.409 | 0.535 | 0.536 |
| 0.952 | 0.714 | 0.593 | LARDMCDKEYY [MET_Y1230_Y1230C] | 0.995 | 1.89 | 2.02 | 0.828 | 0.902 | 1.64 | 0.84 | 1.06 | 0.834 | 0.897 | 0.849 | 0.853 | 1.01 |
| 1.44 | 2.08 | 1.97 | KLRMEYLSLMH [NCKIPSD_Y660] | 0.52 | 0.991 | 0.976 | 0.737 | 0.438 | 0.857 | 0.419 | 0.8 | 0.515 | 0.455 | 0.445 | 0.524 | 0.609 |
| 0.622 | 0.621 | 0.835 | LHAALYERKLL [TTLL5_Y542] | 0.896 | 1.91 | 1.04 | 1.13 | 1.12 | 1.43 | 0.544 | 0.934 | 0.772 | 0.63 | 0.479 | 1.27 | 0.798 |
| 0.83 | 0.928 | 0.967 | FVSIVYSDSGE [TSC2_Y1650_N1651S] | 0.444 | 1.16 | 0.952 | 0.717 | 0.506 | 0.766 | 0.37 | 0.529 | 0.532 | 0.403 | 0.591 | 0.439 | 0.582 |
